B1: CAPR1_HUMAN (protein, UniProt Q14444 2-709, looked up)
Caprin-1: PSATSHSGSGSKSSGPPPPSGSSGSEAAAGAGAAAPASQHPATGTGAVQTEAMKQILGVIDKKLRNLEKKKGKLDDYQERMNKGERLNQDQLDAVSKYQEVTNNLEFAKELQRSFMALSQDIQKTIKKTARREQLMREEAEQKRLKTVLELQYVLDKLGDDEVRTDLKQGLNGVPILSEEELSLLDEFYKLVDPERDMSLRLNEQYEHASIHLWDLLEGKEKPVCGTTYKVLKEIVERVFQSNYFDSTHNHQNGLCEEEEAASAPAVEDQVPEAEPEPAEEYTEQSEVESTEYVNRQFMAETQFTSGEKEQVDEWTVETVEVVNSLQQQPQAASPSVPEPHSLTPVAQADPLVRRQRVQDLMAQMQGPYNFIQDSMLDFENQTLDPAIVSAQPMNPTQNMDMPQLVCPPVHSESRLAQPNQVPVQPEATQVPLVSSTSEGYTASQPLYQPSHATEQRPQKEPIDQIQATISLNTDQTTASSSLPAASQPQVFQAGTSKPLHSSGINVNAAPFQSMQTVFNMNAPVPPVNEPETLKQQNQYQASYNQSFSSQPHQVEQTELQQEQLQTVVGTYHGSPDQSHQVTGNHQQPPQQNTGFPRSNQPYYNSRGVSRGGSRGARGLMNGYRGPANGFRGGYDGYRPSFSNTPNSGYTQSQFSAPRDYSGYQRDGYQQNFKRGSGQSGPRGAPRGRGGPPRPNRGMPQMNTQQVN
B2: MCM5_HUMAN (protein, UniProt P33992 2-734, looked up)
DNA replication licensing …: SGFDDPGIFYSDSFGGDAQADEGQARKSQLQRRFKEFLRQYRVGTDRTGFTFKYRDELKRHYNLGEYWIEVEMEDLASFDEDLADYLYKQPAEHLQLLEEAAKEVADEVTRPRPSGEEVLQDIQVMLKSDASPSSIRSLKSDMMSHLVKIPGIIIAASAVRAKATRISIQCRSCRNTLTNIAMRPGLEGYALPRKCNTDQAGRPKCPLDPYFIMPDKCKCVDFQTLKLQELPDAVPHGEMPRHMQLYCDRYLCDKVVPGNRVTIMGIYSIKKFGLTTSRGRDRVGVGIRSSYIRVLGIQVDTDGSGRSFAGAVSPQEEEEFRRLAALPNVYEVISKSIAPSIFGGTDMKKAIACLLFGGSRKRLPDGLTRRGDINLLMLGDPGTAKSQLLKFVEKCSPIGVYTSGKGSSAAGLTASVMRDPSSRNFIMEGGAMVLADGGVVCIDEFDKMREDDRVAIHEAMEQQTISIAKAGITTTLNSRCSVLAAANSVFGRWDETKGEDNIDFMPTILSRFDMIFIVKDEHNEERDVMLAKHVITLHVSALTQTQAVEGEIDLAKLKKFIAYCRVKCGPRLSAEAAEKLKNRYIIMRSGARQHERDSDRRSSIPITVRQLEAIVRIAEALSKMKLQPFATEADVEEALRLFQVSTLDAALSGTLSGVEGFTSQEDQEMLSRIEKQLKRRFAIGSQVSEHSIIKDFTKQKYPEHAIHKVLQLMLRRGEIQHRMQRKVLYRLK
B3: MCM6_HUMAN (protein, UniProt Q14566 1-821, looked up)
DNA replication licensing …: MDLAAAAEPGAGSQHLEVRDEVAEKCQKLFLDFLEEFQSSDGEIKYLQLAEELIRPERNTLVVSFVDLEQFNQQLSTTIQEEFYRVYPYLCRALKTFVKDRKEIPLAKDFYVAFQDLPTRHKIRELTSSRIGLLTRISGQVVRTHPVHPELVSGTFLCLDCQTVIRDVEQQFKYTQPNICRNPVCANRRRFLLDTNKSRFVDFQKVRIQETQAELPRGSIPRSLEVILRAEAVESAQAGDKCDFTGTLIVVPDVSKLSTPGARAETNSRVSGVDGYETEGIRGLRALGVRDLSYRLVFLACCVAPTNPRFGGKELRDEEQTAESIKNQMTVKEWEKVFEMSQDKNLYHNLCTSLFPTIHGNDEVKRGVLLMLFGGVPKTTGEGTSLRGDINVCIVGDPSTAKSQFLKHVEEFSPRAVYTSGKASSAAGLTAAVVRDEESHEFVIEAGALMLADNGVCCIDEFDKMDVRDQVAIHEAMEQQTISITKAGVKATLNARTSILAAANPISGHYDRSKSLKQNINLSAPIMSRFDLFFILVDECNEVTDYAIARRIVDLHSRIEESIDRVYSLDDIRRYLLFARQFKPKISKESEDFIVEQYKHLRQRDGSGVTKSSWRITVRQLESMIRLSEAMARMHCCDEVQPKHVKEAFRLLNKSIIRVETPDVNLDQEEEIQMEVDEGAGGINGHADSPAPVNGINGYNEDINQESAPKASLRLGFSEYCRISNLIVLHLRKVEEEEDESALKRSELVNWYLKEIESEIDSEEELINKKRIIEKVIHRLTHYDHVLIELTQAGLKGSTEGSESYEEDPYLVVNPNYLLED
B4: NOLC1_HUMAN (protein, UniProt Q14978 1-699, looked up)
Nucleolar and coiled-body …: MADAGIRRVVPSDLYPLVLGFLRDNQLSEVANKFAKATGATQQDANASSLLDIYSFWLKSAKVPERKLQANGPVAKKAKKKASSSDSEDSSEEEEEVQGPPAKKAAVPAKRVGLPPGKAAAKASESSSSEESSDDDDEEDQKKQPVQKGVKPQAKAAKAPPKKAKSSDSDSDSSSEDEPPKNQKPKITPVTVKAQTKAPPKPARAAPKIANGKAASSSSSSSSSSSSDDSEEEKAAATPKKTVPKKQVVAKAPVKAATTPTRKSSSSEDSSSDEEEEQKKPMKNKPGPYSSVPPPSAPPPKKSLGTQPPKKAVEKQQPVESSEDSSDESDSSSEEEKKPPTKAVVSKATTKPPPAKKAAESSSDSSDSDSSEDDEAPSKPAGTTKNSSNKPAVTTKSPAVKPAAAPKQPVGGGQKLLTRKADSSSSEEESSSSEEEKTKKMVATTKPKATAKAALSLPAKQAPQGSRDSSSDSDSSSSEEEEEKTSKSAVKKKPQKVAGGAAPSKPASAKKGKAESSNSSSSDDSSEEEEEKLKGKGSPRPQAPKANGTSALTAQNGKAAKNSEEEEEEKKKAAVVVSKSGSLKKRKQNEAAKEAETPQAKKIKLQTPNTFPKRKKGEKRASSPFRRVREEEIEVDSRVADNSFDAKRGAAGDWGERANQVLKFTKGKSFRHEKTKKKRGSYRGGSISVQVNSIKFDSE
B5: NU160_HUMAN (protein, UniProt Q12769 1-1436, looked up)
Nuclear pore complex protein …: MLHLSAAPPAPPPEVTATARPCLCSVGRRGDGGKMAAAGALERSFVELSGAERERPRHFREFTVCSIGTANAVAGAVKYSESAGGFYYVESGKLFSVTRNRFIHWKTSGDTLELMEESLDINLLNNAIRLKFQNCSVLPGGVYVSETQNRVIILMLTNQTVHRLLLPHPSRMYRSELVVDSQMQSIFTDIGKVDFTDPCNYQLIPAVPGISPNSTASTAWLSSDGEALFALPCASGGIFVLKLPPYDIPGMVSVVELKQSSVMQRLLTGWMPTAIRGDQSPSDRPLSLAVHCVEHDAFIFALCQDHKLRMWSYKEQMCLMVADMLEYVPVKKDLRLTAGTGHKLRLAYSPTMGLYLGIYMHAPKRGQFCIFQLVSTESNRYSLDHISSLFTSQETLIDFALTSTDIWALWHDAENQTVVKYINFEHNVAGQWNPVFMQPLPEEEIVIRDDQDPREMYLQSLFTPGQFTNEALCKALQIFCRGTERNLDLSWSELKKEVTLAVENELQGSVTEYEFSQEEFRNLQQEFWCKFYACCLQYQEALSHPLALHLNPHTNMVCLLKKGYLSFLIPSSLVDHLYLLPYENLLTEDETTISDDVDIARDVICLIKCLRLIEESVTVDMSVIMEMSCYNLQSPEKAAEQILEDMITIDVENVMEDICSKLQEIRNPIHAIGLLIREMDYETEVEMEKGFNPAQPLNIRMNLTQLYGSNTAGYIVCRGVHKIASTRFLICRDLLILQQLLMRLGDAVIWGTGQLFQAQQDLLHRTAPLLLSYYLIKWGSECLATDVPLDTLESNLQHLSVLELTDSGALMANRFVSSPQTIVELFFQEVARKHIISHLFSQPKAPLSQTGLNWPEMITAITSYLLQLLWPSNPGCLFLECLMGNCQYVQLQDYIQLLHPWCQVNVGSCRFMLGRCYLVTGEGQKALECFCQAASEVGKEEFLDRLIRSEDGEIVSTPRLQYYDKVLRLLDVIGLPELVIQLATSAITEAGDDWKSQATLRTCIFKHHLDLGHNSQAYEALTQIPDSSRQLDCLRQLVVVLCERSQLQDLVEFPYVNLHNEVVGIIESRARAVDLMTHNYYELLYAFHIYRHNYRKAGTVMFEYGMRLGREVRTLRGLEKQGNCYLAALNCLRLIRPEYAWIVQPVSGAVYDRPGASPKRNHDGECTAAPTNRQIEILELEDLEKECSLARIRLTLAQHDPSAVAVAGSSSAEEMVTLLVQAGLFDTAISLCQTFKLPLTPVFEGLAFKCIKLQFGGEAAQAEAWAWLAANQLSSVITTKESSATDEAWRLLSTYLERYKVQNNLYHHCVINKLLSHGVPLPNWLINSYKKVDAAELLRLYLNYDLLEEAVDLVSEYVDAVLGKGHQYFGIEFPLSATAPMVWLPYSSIDQLLQALGENSANSHNIALSQKILDKLEDYQQKVDKATRDLLYRRTL
B6: MCCA_HUMAN (protein, UniProt Q96RQ3 42-725, looked up)
Methylcrotonoyl-CoA …: TTATGRNITKVLIANRGEIACRVMRTAKKLGVQTVAVYSEADRNSMHVDMADEAYSIGPAPSQQSYLSMEKIIQVAKTSAAQAIHPGCGFLSENMEFAELCKQEGIIFIGPPPSAIRDMGIKSTSKSIMAAAGVPVVEGYHGEDQSDQCLKEHARRIGYPVMIKAVRGGGGKGMRIVRSEQEFQEQLESARREAKKSFNDDAMLIEKFVDTPRHVEVQVFGDHHGNAVYLFERDCSVQRRHQKIIEEAPAPGIKSEVRKKLGEAAVRAAKAVNYVGAGTVEFIMDSKHNFCFMEMNTRLQVEHPVTEMITGTDLVEWQLRIAAGEKIPLSQEEITLQGHAFEARIYAEDPSNNFMPVAGPLVHLSTPRADPSTRIETGVRQGDEVSVHYDPMIAKLVVWAADRQAALTKLRYSLRQYNIVGLHTNIDFLLNLSGHPEFEAGNVHTDFIPQHHKQLLLSRKAAAKESLCQAALGLILKEKAMTDTFTLQAHDQFSPFSSSSGRRLNISYTRNMTLKDGKNNVAIAVTYNHDGSYSMQIEDKTFQVLGNLYSEGDCTYLKCSVNGVASKAKLIILENTIYLFSKEGSIEIDIPVPKYLSSVSSQETQGGPLAPMTGTIEKVFVKAGDKVKAGDSLMVMIAMKMEHTIKSPKDGTVKKVFYREGAQANRHTPLVEFEEEESDKRESE
B7: DDX5_HUMAN (protein, UniProt P17844 1-614, looked up)
Probable ATP-dependent RNA …: MSGYSSDRDRGRDRGFGAPRFGGSRAGPLSGKKFGNPGEKLVKKKWNLDELPKFEKNFYQEHPDLARRTAQEVETYRRSKEITVRGHNCPKPVLNFYEANFPANVMDVIARQNFTEPTAIQAQGWPVALSGLDMVGVAQTGSGKTLSYLLPAIVHINHQPFLERGDGPICLVLAPTRELAQQVQQVAAEYCRACRLKSTCIYGGAPKGPQIRDLERGVEICIATPGRLIDFLECGKTNLRRTTYLVLDEADRMLDMGFEPQIRKIVDQIRPDRQTLMWSATWPKEVRQLAEDFLKDYIHINIGALELSANHNILQIVDVCHDVEKDEKLIRLMEEIMSEKENKTIVFVETKRRCDELTRKMRRDGWPAMGIHGDKSQQERDWVLNEFKHGKAPILIATDVASRGLDVEDVKFVINYDYPNSSEDYIHRIGRTARSTKTGTAYTFFTPNNIKQVSDLISVLREANQAINPKLLQLVEDRGSGRSRGRGGMKDDRRDRYSAGKRGGFNTFRDRENYDRGYSSLLKRDFGAKTQNGVYSAANYTNGSFGSNFVSAGIQTSFRTGNPTGTYQNGYDSTQQYGSNVPNMHNGMNQQAYAYPATAAAPMIGYPMPTGYSQ

What follows are molecules tested on KDM4A-I71AzF (assay: CASI: photo-crosslinking with HEK293T cell extracts, StrepTactin enrichment and LC-MS/MS proteomics). Details: sheet "Final results but with 0.01".
Assay type: binding, human
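Further: lysates from HEK293T cells pretreated with a KDM4 inhibitor to raise proteome methylation, affinity-purified after ±UV, gel-resolved, trypsin-digested, with exclusive unique peptides per protein averaged per condition.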

Going from B1 to B2, the “Fold change (+UV/-UV)” value rises from 0.5 to 0.9167.

First: B3
Second: B4
The “Fold change (+UV/-UV)” value of the first is lower: 0.75 for the first, 1 for the second.

Compared with B5, B6 is lower in “Fold change (+UV/-UV)” value: 0.5 for the first, 0 for the second.

With B7 the “Fold change (+UV/-UV)” value was 1.6.

Reference: paper PMC10540216, “Activity Guided Azide-methyllysine Photo-trapping for Substrate Profiling of Lysine Demethylases” (Journal of the American Chemical Society, 2023)
